Test results from patent US20170226203A1 (Daiichi Sankyo, published 2017).
Substitutions are numbered along the chain they refer to.

B1: human anti-human Orai1 antibody 5H3.1 (antibody, human IgG2, lambda, V domains shown)
VH: QVQLVQSGAEVKKPGASVKVSCKASGYTFTDYYMNWVRQAPGQGLEWMGWINPNSGGTKYAQKFQGRVTMTRDTSIRTAYMELSRLRSDDTAVYYCAREYGGNSDWFDPWGQGTLVTVSS
VL: QSVLTQPPSVSGAPGQRVTISCTGSSSNIGAGYDVHWYQQLPGTAPKLLIYGNSNRPSGVPDRFSGSKSGTSASLAITGLQAEDEADYYCQSYDNRLSDSVVIGGGTKLAVQG
B2: affinity maturation antibody hR198_HG1/LG1 (antibody, human IgG1, kappa)
heavy: not shown
light: DIQLTQSPSSLSASVGDRVTITCRASQSIGGSLSWFQQKPGKAPKRLIYSTSTLESGVPSRFSGSGSGTDYTLTISSLQPEDFAMYYCLQFAIFPDSFGQGTKVEIKRTVAAPSVFIFPPSDEQLKSGTASVVCLLNNFYPREAKVQWKVDNALQSGNSQESVTEQDSKDSTYSLSSTLTLSKADYEKHKVYACEVTHQGLSSPVTKSFNRGEC
B3: hR198_HG1-LALA/LG1 (antibody, human IgG1, kappa, L234A L235A)
heavy: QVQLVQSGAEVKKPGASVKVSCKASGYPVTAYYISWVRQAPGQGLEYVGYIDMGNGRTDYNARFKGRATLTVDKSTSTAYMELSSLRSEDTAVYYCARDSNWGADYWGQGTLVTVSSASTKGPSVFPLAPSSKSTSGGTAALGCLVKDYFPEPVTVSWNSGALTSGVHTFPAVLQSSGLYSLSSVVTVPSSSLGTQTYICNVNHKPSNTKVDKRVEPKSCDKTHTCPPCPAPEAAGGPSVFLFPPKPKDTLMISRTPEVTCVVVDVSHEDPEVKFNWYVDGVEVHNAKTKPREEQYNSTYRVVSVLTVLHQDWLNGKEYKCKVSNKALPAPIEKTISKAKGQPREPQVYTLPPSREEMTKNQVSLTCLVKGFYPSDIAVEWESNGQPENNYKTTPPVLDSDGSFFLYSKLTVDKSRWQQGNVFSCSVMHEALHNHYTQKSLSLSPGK
light: B2 light
B4: mouse anti-human Orai1 antibody 10F8 (antibody, mouse IgG1, kappa, V domains shown)
VH: QVQLQQSGAELVRPGSSVKISCKASGYAFRSYWMNWVKQRPGQGLEWIGHIYPGDGDTNYNGKFKGKATLTADKSSSTAYMQLSSLTSEDSAVYLCGRGGTTVVVDYWGQGTTLTVSS
VL: DIVMSQSPSSLAVSAGEKVTMSCKSSQSLLNSRTRKNYLAWYQQKPGQSPKLLIYWASTRESGVPDRFTGSGSGTDFTLTISSVQAEDLAVYYCKQSYNLPWTFGGGTKLEIKR
B5: mouse anti-human Orai1 antibody 14F74 (antibody, mouse IgG1, kappa, V domains shown)
VH: QVQLQQSGAELVRPGSSVKISCKASGYAFSSYWMNWVKQRPGQGLEWIGHIYPGDGDTNYNGKFKGKATLTADKSSSTAYMQLSGLTSEDSAVYFCARSGRLRFAMDYWGQGTSVTVSS
VL: DIVMSQSPSSLAVSAGEKVTMSCKSSQSLLNSRTRKNYLAWYQQKPGQSPKLLIYWASTRESGVPDRFTGSGSGTDFTLTISSVQAEDLAVYYCKQSYNLRTFGGGTKLEIQR
B6: mouse anti-human Orai1 antibody 17F6 (antibody, mouse IgG1, kappa, V domains shown)
VH: B5 VH with G56A, Q82H, G85S, A97S, S99Q, G100L, R101G, L102F, F104Y
VL: B5 VL with Q112K
B7: human anti-human Orai1 antibody 2C1.1 (antibody, human IgG2, lambda, V domains shown)
VH: QVQLQQWGAGLLKPSETLSLTCAVYGGSFSGYYWSWIRQPPGKGLEWIGEIDHSGSTNYNPALKSRLTISVDTSKNQFSLKLSSVTAADTAVYYCARAGSGGYEDWFDPWGQGTLVTVSS
VL: QSVLTQPPSVSGAPGQRVTISCTGSSSNIGAGYNVHWYQQFPRTDPKLLIYVYNIRPSGVPDRFSGSRSGTSASLAITGLQTEDEADYYCQSYDSSLSGVVFGGGTKLTVLG
B8: parent antibody Fab hR198_H4/L4-Fab (Fab, V domains shown)
VH: QVQLVQSGAEVKKPGASVKVSCKASGYPVTAYYISWIRQAPGQGLEYVGYIDMGNGRTNYNARFKGRATLTVDKSTSTAYMELSSLRSEDTAVYYCARDSNWGVDYWGQGTLVTVSS
VL: DIQLTQSPSSLSASVGDRVTITCRASQSIGNSLSWFQQKPGKAVKRLIYSTSTLESGVPSRFSGSGSGTDYTLTISSLQPEDFAMYYCLQFATFPDTFGQGTKVEI
notes: Fab of hR198_H4/L4
B9: humanized anti-human Orai1 antibody hR198_H4/L4 (antibody, human IgG1, kappa, V domains shown)
VH: B8 VH
VL: DIQLTQSPSSLSASVGDRVTITCRASQSIGNSLSWFQQKPGKAVKRLIYSTSTLESGVPSRFSGSGSGTDYTLTISSLQPEDFAMYYCLQFATFPDTFGQGTKVEIKR
notes: Human IgG1 / kappa; also called hH4/L4

The binders below were run against T1, human Orai1 (human, UniProt Q96D31 1-301) (assay: cell-based or functional assay).
T1 sequence (Q96D31 whole entry): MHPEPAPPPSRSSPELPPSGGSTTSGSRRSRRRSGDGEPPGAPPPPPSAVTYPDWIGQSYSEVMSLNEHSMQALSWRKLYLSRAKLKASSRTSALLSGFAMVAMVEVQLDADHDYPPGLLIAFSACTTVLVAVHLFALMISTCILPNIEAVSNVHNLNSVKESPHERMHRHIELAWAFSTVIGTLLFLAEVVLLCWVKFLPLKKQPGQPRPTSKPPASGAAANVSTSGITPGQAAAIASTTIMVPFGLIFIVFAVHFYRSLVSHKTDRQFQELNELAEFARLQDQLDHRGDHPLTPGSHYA

Row | Binder | IC50, IFN-γ release from human PBMC treated with PMA and A23187 [µg/mL] | IC50, IL-2 release from Jurkat cells treated with PMA and A23187 [µg/mL] | IC50, IL-2 release from human PBMC treated with PMA and A23187 [µg/mL] | IC80, IFN-γ release from human PBMC treated with PMA and A23187 [µg/mL] | IC80, IL-2 release from Jurkat cells treated with PMA and A23187 [µg/mL] | IC80, IL-2 release from human PBMC treated with PMA and A23187 [µg/mL]
1 | B1 | ≥ 0.8 | ≥ 0.08 | ≥ 0.1 | ≥ 300 | ≥ 60 | ≥ 17
2 | B2 | ≤ 0.04 | ≤ 0.01 | ≤ 0.02 | ≤ 2 | ≤ 0.2 | ≤ 0.4
3 | B3 | ≤ 0.04 | ≤ 0.01 | ≤ 0.02 | ≤ 2 | ≤ 0.2 | ≤ 0.4
4 | B4 | ≥ 0.8 | ≥ 0.08 | ≥ 0.1 | ≥ 300 | ≥ 60 | ≥ 17
5 | B5 | ≥ 0.8 | ≥ 0.08 | ≥ 0.1 | ≥ 300 | ≥ 60 | ≥ 17
6 | B6 | ≥ 0.8 | ≥ 0.08 | ≥ 0.1 | ≥ 300 | ≥ 60 | ≥ 17
7 | B7 | ≥ 0.8 | ≥ 0.08 | ≥ 0.1 | ≥ 300 | ≥ 60 | ≥ 17

Each binder was assayed against T1, human Orai1 (assay: flow cytometry, pcDNA3.1-hOrai1 transfected HEK293T cells).

Row | Binder | binding result
8 | B8 | binds
9 | B9 | binds
